Values joined by “and” are separate entries in the source; they are usually repeats but may differ in a detail not shown here. Equal values may be shown once.
Columns and labels:
[1] = test system: fibrinogen solution; assay: Stability of TGplPTH1-34 over time in fibrinogen solution stored at room temperature (HPLC-UV); format: physicochemical; settings: for TGplPTH1-34 content Mean ± SD / % loss of TGplPTH1-34: in fibrinogen solution; for TGplPTH1-34 content Mean ± SD: room temperature (20-25° C.); for % loss of TGplPTH1-34: room temperature
Procedure: In order to evaluate the stability of TGplPTH1-34 in the fibrinogen component over time, TGplPTH1-34 was mixed with a fibrinogen solution and stored at room temperature.
TGplPTH1-34 was added to fibrinogen solution at a concentration of 266 μg/ml and incubated at room temperature for up to 34 days. Samples were taken at indicated time points and TGplPTH1-34 concentration was determined by HPLC. Briefly, TGplPTH1-34 was quantified with a HPLC-UV method using a Zorbax Agilent RP18 column (4.6×150 mmm, 5 μm, 300 A) for the separation of related substances. As eluent A: 0.1% TFA, 1% ACN in water and as eluent B: 0.1% TFA in ACN was used. The gradient was 0 min. 26% B; 15 min 38% B; 18 min. 90% B; 22 min 26% B; 24 min 26% B. The injection volume was 20 μl and the flow rate was 1 ml/min. The column temperature was 35° C. A reference standard was used for the calibration curve.
The results from the TGplPTH1-34 stability analysis in fibrinogen stored at room temperature (20-25° C.) for up to 34 days are shown in Table 2.

[2] = biological target: T1, fibrin matrix (Homo sapiens, UniProt P02671+P02675+P02679); assay: Retention assay: covalent binding of TGplPTH1-34 to fibrin matrix (unbound peptide extracted, PTH1-34 ELISA); settings: for % unbound TGplPTH1-34 in fibrin matrix: 1 mg/ml final; for Average % unbound ± SD: both experiments
T1 construct: thrombin on one hand cleaves fibrinogen leading to fibrin polymers; purchased Baxter Healthcare AG (ARTISS®)
T1 sequence (P02671 36-866 limits assumed): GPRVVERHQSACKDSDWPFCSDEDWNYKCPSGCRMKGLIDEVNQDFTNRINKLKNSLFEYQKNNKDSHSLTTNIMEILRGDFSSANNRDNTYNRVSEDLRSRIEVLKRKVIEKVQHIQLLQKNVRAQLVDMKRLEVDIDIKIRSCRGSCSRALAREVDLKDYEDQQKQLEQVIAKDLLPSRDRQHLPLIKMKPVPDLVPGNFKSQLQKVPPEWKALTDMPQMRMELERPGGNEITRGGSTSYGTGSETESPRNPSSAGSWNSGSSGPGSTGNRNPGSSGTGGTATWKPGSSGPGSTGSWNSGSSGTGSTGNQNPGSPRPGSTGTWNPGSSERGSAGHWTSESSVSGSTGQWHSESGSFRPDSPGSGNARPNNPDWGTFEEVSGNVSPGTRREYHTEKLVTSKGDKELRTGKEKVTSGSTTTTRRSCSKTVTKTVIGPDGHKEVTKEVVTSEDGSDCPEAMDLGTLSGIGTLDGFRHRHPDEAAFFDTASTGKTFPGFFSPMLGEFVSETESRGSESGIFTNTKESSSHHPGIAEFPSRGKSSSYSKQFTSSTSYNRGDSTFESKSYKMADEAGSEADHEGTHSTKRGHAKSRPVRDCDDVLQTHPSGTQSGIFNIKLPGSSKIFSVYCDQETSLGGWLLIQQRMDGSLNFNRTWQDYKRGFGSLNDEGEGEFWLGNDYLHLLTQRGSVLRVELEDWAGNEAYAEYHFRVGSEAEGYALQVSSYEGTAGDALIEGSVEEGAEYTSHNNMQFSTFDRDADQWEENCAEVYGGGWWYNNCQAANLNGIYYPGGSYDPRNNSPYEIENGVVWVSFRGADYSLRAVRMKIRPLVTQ
T1 sequence (P02675 45-491 limits assumed): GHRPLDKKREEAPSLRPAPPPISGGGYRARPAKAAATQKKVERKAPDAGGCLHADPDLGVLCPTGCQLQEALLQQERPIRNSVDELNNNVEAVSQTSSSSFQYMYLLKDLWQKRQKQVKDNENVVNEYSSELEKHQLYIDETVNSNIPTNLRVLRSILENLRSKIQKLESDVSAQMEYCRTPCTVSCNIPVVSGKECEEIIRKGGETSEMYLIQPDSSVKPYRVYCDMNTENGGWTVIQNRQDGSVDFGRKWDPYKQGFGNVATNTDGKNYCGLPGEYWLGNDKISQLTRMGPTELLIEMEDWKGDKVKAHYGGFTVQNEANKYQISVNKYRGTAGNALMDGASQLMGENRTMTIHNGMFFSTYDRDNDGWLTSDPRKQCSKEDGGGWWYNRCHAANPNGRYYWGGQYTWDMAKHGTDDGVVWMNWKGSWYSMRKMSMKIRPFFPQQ
T1 sequence (P02679 27-433 limits assumed): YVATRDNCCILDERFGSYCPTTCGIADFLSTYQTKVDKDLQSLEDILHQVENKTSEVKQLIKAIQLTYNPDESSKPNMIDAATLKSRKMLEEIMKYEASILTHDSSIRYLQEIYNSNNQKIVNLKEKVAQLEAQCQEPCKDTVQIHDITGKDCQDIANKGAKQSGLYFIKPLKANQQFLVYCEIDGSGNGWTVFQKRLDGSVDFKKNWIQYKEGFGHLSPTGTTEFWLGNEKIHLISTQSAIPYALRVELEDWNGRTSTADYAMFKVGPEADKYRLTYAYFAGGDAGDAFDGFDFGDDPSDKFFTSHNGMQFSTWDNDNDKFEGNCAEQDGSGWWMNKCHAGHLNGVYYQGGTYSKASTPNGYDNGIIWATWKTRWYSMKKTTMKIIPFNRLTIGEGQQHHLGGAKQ
Procedure: The percentage of covalent TGplPTH1-34 binding to fibrin matrices was determined in fibrin matrices prepared with two different methods using an indirect assay. With this assay, non-covalently bound TGplPTH1-34 that can be washed out of the matrix is determined. In the first method (pre-mixing), the two components of the fibrin sealant, ARTISS® were thawed and TGplPTH1-34 was premixed with the fibrinogen component at a concentration of 2 mg/ml. Immediately after mixing, the two components of the fibrin sealant were frozen again and stored at −20° C. The samples were then thawed, and the two components of the sealant were mixed. The final concentration of TGplPTH1-34 in mixed fibrin sealant was 1 mg/ml.
In the second method, the two fibrin sealant components were directly mixed with TGplPTH1-34 solubilized in water to achieve a final concentration of 1 mg/ml (see FIG. 1A).
To evaluate the amount of TGplPTH1-34 covalently bound to the fibrin matrix with the two methods, samples prepared by either of the two methods were subjected to a retention assay. Aliquots of 50 μl were added to 1.5 ml Eppendorf tubes. The fibrin matrices were then incubated at 37° C. for 1 hour. Unbound TGplPTH1-34 was extracted from the fibrin matrix by addition of 1.5 ml extraction buffer (50 mM Tris pH 9.4, 1M NaCl, 0.1% Tween 20) supplemented with protease Inhibitors (Roche Cat #11836153001 cOmplete™, Mini Protease Inhibitor Co) and incubated under constant shaking. After 3 hours the supernatant was collected and 1.5 ml of fresh extraction buffer was added to the fibrin matrix. This extraction step was repeated after 6, 24, 30 and 48 h. Collected supernatants were stored at −20° C. until further processing.
To determine the amount of unbound TGplPTH1-34, the 5 collected supernatants were thawed and pooled. TGplPTH1-34 in the pool was determined by ELISA with a commercial PTH1-34 ELISA kit (Immutopics, Cat *60-3900) following the manufacturer's recommendation. Two independent experiments (three samples per fibrin matrix and experiment) were performed with both preparation methods and the amount of TGplPTH1-34 not bound to the fibrin matrix was determined.

- % unbound TGplPTH1-34 in fibrin matrix ([2]; First method (pre-mixing with fibrinogen component, refrozen), Experiment 1, samples 1-3): 16.8% and 14.4% and 13.9%
- % unbound TGplPTH1-34 in fibrin matrix ([2]; First method (pre-mixing with fibrinogen component, refrozen), Experiment 2, samples 1-3): 14.7% and 10.2% and 15.1%
- Average % unbound ± SD ([2]; First method (pre-mixing)): 14.2 ± 2.2%
- Average % unbound ± SD ([2]; Second method (direct mixing)): 14.0 ± 1.4%
- % unbound TGplPTH1-34 in fibrin matrix ([2]; Second method (sealant components directly mixed with TGplPTH1-34 in water), Experiment 1, samples 1-3): 13.9% and 11.3% and 15.4%
- % unbound TGplPTH1-34 in fibrin matrix ([2]; Second method (sealant components directly mixed with TGplPTH1-34 in water), Experiment 2, samples 1-3): 14.4% and 14.7%
Substance: TGplPTH1-34: PTH fusion peptide: TG substrate domain, plasmin cleavage site, PTH1-34; NQEQVSPLYKNRSVSEIQLMHNLGKHLNSMERVEWLRKKLQDVHNF (Synthetic fusion protein)
- % of the product degraded ([1]; 3-5 days in fibrinogen solution at room temperature (time frame for manufacturing)): 4.3-7.8%
- TGplPTH1-34 content Mean ± SD ([1]; day 0, added at 266 μg/ml): 232 ± 0.99 µg/mL
- % loss of TGplPTH1-34 ([1]; day 3): −4.3%
- TGplPTH1-34 content Mean ± SD ([1]; day 3): 222 ± 0.80 µg/mL
- % loss of TGplPTH1-34 ([1]; day 5): −7.8%
- TGplPTH1-34 content Mean ± SD ([1]; day 5): 214 ± 1.48 µg/mL
- % loss of TGplPTH1-34 ([1]; day 7): −10.3%
- TGplPTH1-34 content Mean ± SD ([1]; day 7): 208 ± 1.76 µg/mL
- % loss of TGplPTH1-34 ([1]; day 14): −17.2%
- TGplPTH1-34 content Mean ± SD ([1]; day 14): 192 ± 2.28 µg/mL
- % loss of TGplPTH1-34 ([1]; day 21): −24.1%
- TGplPTH1-34 content Mean ± SD ([1]; day 21): 176 ± 1.57 µg/mL
- % loss of TGplPTH1-34 ([1]; day 29): −25.9%
- TGplPTH1-34 content Mean ± SD ([1]; day 29): 172 ± 2.51 µg/mL
- % loss of TGplPTH1-34 ([1]; day 34): −28.0%
- TGplPTH1-34 content Mean ± SD ([1]; day 34): 167 ± 1.2 µg/mL
- degradation of the fusion peptide in fibrinogen solution ([1]; exposure for more than 5 days at room temperature): substantial degradation
